What was measured:
[1] = target: cation-independent mannose-6-phosphate receptor (CI-M6PR) on cells overexpressing CI-M6PR; assay: cellular uptake assay on cells overexpressing CI-M6PR, intracellular Naglu activity read-out
[2] = target: T1, cation-independent mannose-6-phosphate receptor (CI-M6PR), as used in the in vitro receptor binding assay …; assay: ELISA, CI-M6PR binding, detection with antibody to human Naglu
[3] = target: T1, cation-independent mannose-6-phosphate …; assay: in vitro CI-M6PR binding assay

Row | fold higher affinity than Naglu-SapDC produced in GNPT overexpressing cells [1] [fold] | Kd [2] [nM] | Kd [3] [nM] | Binder
1 | 3.6 | ~0.21 | 0.24 | Naglu-IGFII fusion protein (produced in HT-1080 cells) (enzyme, Purified from conditioned medium) DEAREAAAVRALVARLLGPGPAADFSVSVERALAAKPGLDTYSLGGGGAARVRVRGSTGVAAAAGLHRYLRDFCGCHVAWSGSQLRLPRPLPAVPGELTEATPNRYRYYQNVCTQSYSFVWWDWARWEREIDWMALNGINLALAWSGQEAIWQRVYLALGLTQAEINEFFTGPAFLAWGRMGNLHTWDGPLPPSWHIKQLYLQHRVLDQMRSFGMTPVLPAFAGHVPEAVTRVFPQVNVTKMGSWGHFNCSYSCSFLLAPEDPIFPIIGSLFLRELIKEFGTDHIYGADTFNEMQPPSSEPSYLAAATTAVYEAMTAVDTEAVWLLQGWLFQHQPQFWGPAQIRAVLGAVPRGRLLVLDLFAESQPVYTRTASFQGQPFIWCMLHNFGGNHGLFGALEAVNGGPEAARLFPNSTMVGTGMAPEGISQNEVVYSLMAELGWRKDPVPDLAAWVTSFAARRYGVSHPDAGAAWRLLLRSVYNCSGEACRGHNRSPLVRRPSLQMNTSIWYNRSDVFEAWRLLLTSAPSLATSPAFRYDLLDLTRQAVQELVSLYYEEARSAYLSKELASLLRAGGVLAYELLPALDEVLASDSRFLLGSWLEQARAAAVSEAEADFYEQNSRYQLTLWGPEGNILDYANKQLAGLVANYYTPRWRLFLEALVDSVAQGIPFQQHQFDKNVFQLEQAFVLSKQRYPSQPRGDTVDLAKKIFLKYYPRWVAGSWGAPGGGGGAAAAAGGGGGGAPGGGGGAAAAAGGGGGGAPGGGGGAAAAAGGGGGGAPLCGGELVDTLQFVCGDRGFYFSRPASRVSRRSRGIVEECCFRSCDLALLETYCATPAKSE
2 |  | 32.4 |  | Naglu-LIF fusion protein (produced in HT-1080 cells) (enzyme, N-linked glycosylation sites in the LIF part marked (N); by anti-M6P Western blot not M6P-phosphorylated in any detectable manner when overexpressed alone) not shown
3 |  |  | ~65 | recombinant human Naglu (rhNaglu) produced in HT-1080 cells overexpressing GNPT (enzyme, M6P on N-linked glycans enhanced by co-expression with GNPT, Same polypeptide as rhNaglu; It differs in being co-expressed with GNPT; also called GNPT/rhNaglu; rhNaglu produced using a GNPT overexpressing cell line) DEAREAAAVRALVARLLGPGPAADFSVSVERALAAKPGLDTYSLGGGGAARVRVRGSTGVAAAAGLHRYLRDFCGCHVAWSGSQLRLPRPLPAVPGELTEATPNRYRYYQNVCTQSYSFVWWDWARWEREIDWMALNGINLALAWSGQEAIWQRVYLALGLTQAEINEFFTGPAFLAWGRMGNLHTWDGPLPPSWHIKQLYLQHRVLDQMRSFGMTPVLPAFAGHVPEAVTRVFPQVNVTKMGSWGHFNCSYSCSFLLAPEDPIFPIIGSLFLRELIKEFGTDHIYGADTFNEMQPPSSEPSYLAAATTAVYEAMTAVDTEAVWLLQGWLFQHQPQFWGPAQIRAVLGAVPRGRLLVLDLFAESQPVYTRTASFQGQPFIWCMLHNFGGNHGLFGALEAVNGGPEAARLFPNSTMVGTGMAPEGISQNEVVYSLMAELGWRKDPVPDLAAWVTSFAARRYGVSHPDAGAAWRLLLRSVYNCSGEACRGHNRSPLVRRPSLQMNTSIWYNRSDVFEAWRLLLTSAPSLATSPAFRYDLLDLTRQAVQELVSLYYEEARSAYLSKELASLLRAGGVLAYELLPALDEVLASDSRFLLGSWLEQARAAAVSEAEADFYEQNSRYQLTLWGPEGNILDYANKQLAGLVANYYTPRWRLFLEALVDSVAQGIPFQQHQFDKNVFQLEQAFVLSKQRYPSQPRGDTVDLAKKIFLKYYPRWVAGSW
